Protein production data for 20 sequences are collected here from a protein production outcome set (Wang et al. 2014).

The series is described as follows: label from the status in PepcDB records.
As to “MSMHPFLASPQQKIVSRMSPRPPPSPVCLGDLTHPIIAGLISVIVNYGGTFILVFQAAKIAGLSPELTASWVWSISIGVGLTGLFLSLRYREPIITAWSTPAAAFLVTALATTPYAEAIGAYMISAAAFVVLGLSGYFEKVIRLIPPGIASGLLAGILLQFGIGAFGGASVDPWLVGLLIAAYVALKRFSARYAVVGILLLGLAFLLTQGRVDLSGLKLVFAAPVFSMPEFSLNALLSVALPLFLITLTGQYMPGMLVLRNDGFKTSANPIVTVTGLGSLIMAPFGSHAFNIAAITAAIATGREAHEDPSKRWIAGIAAGCFYVLVGVFGVTLAAVFMAFPATFITTLAGLALLGTIGGSLAGAMADPTSREAALITFLASAANIKLLGIGGAFWGLLIGGLAYVVLNGPMPYRATTDHRVTEAAAK”, the protein production result was “failed”.
Turning to “MSMKGISSAESDKLSRRISLTHKRNSEELDVFEAAVYFGYNEASSGDHGHTQKYGYNAAREENPRRWGILGGGRRISLDLPIRCSEQVYHLQQDHHEKHEVTTIKERLGNVRHKQPSSPGGKIASFLNSLFHQAGSKKNKSKSKSKTKPTDPEVEEEIPGGGWMRRRRRSSISHFFSSSRSTSTTTTTTASSSSKSLISSSSSGFRTPPPYLNTPTKNYKQFLNYTSATKQVGEEETKTNKEYSWLDEKLKVMESLSENQRIWSDDEDIDDDRRIKREGEDDGMESDSSSDLFELQNYELSRGGLPVYETTNVANINKTHI”, the protein production entry is “failed”.
Then “MSMNNSKQLVSPAAALLSNTTCQTENRLSVFFSVIFMTVGILSNSLAIAILMKAYQRFRQKSKASFLLLASGLVITDFFGHLINGAIAVFVYASDKEWIRFDQSNVLCSIFGICMVFSGLCPLLLGSVMAIERCIGVTKPIFHSTKITSKHVKMMLSGVCLFAVFIALLPILGHRDYKIQASRTWCFYNTEDIKDWEDRFYLLLFSFLGLLALGVSLLCNAITGITLLRVKFKSQQHRQGRSHHLEMVIQLLAIMCVSCICWSPFLGYRIILNGKEKYKVYEEQSDFLHRLQWPTLE”, with “failed”; and “MSMSTSTEVIAHHWAFAIFLIVAIGLCCLMLVGGWFLGGRARARSKNVPFESGIDSVGSARLRLSAKFYLVAMFFVIFDVEALYLFAWSTSIRESGWVGFVEAAIFIFVLLAGLVYLVRIGALDWTPARSRRERMNPETNSIANRQR”, with “failed”.
In the case of “MSMVLSFLKKFVENHVMSRHTVAVTLFLTDMAVILGTAIGVGLLRHAFDGYLDPTHYLRLLPFLLLFPAASFAMGLYQSVPLPPPCELKRLSLATCCTYLAIAIFIFFTRGGELYSRLTFALAGLVSLVAVPVARHLVRQRMARHRGWAAPALLFGKPHHVQPLAHILLSSPSLGLEPVAIVSAEHSTCHDFGCLPAFDAETTRQYAAGHPEAYAIVVMESYDEADRAHLVEHLSRLFCSVILLRSSTMSTGNIWLSPIEIGGLPGLMVRQNLLDPRRLTVKRTLDLIATTLALPLILPVMAVIALCIRLETPGPALFTQRRIGRDGYHFDILKFRTMYNDADTRLAECLEQSPELDAEWRRDHKLRCDPRVTRVGAFLRKTSLDELPQLWNVLRGDMSLVGPRPIVDSEVQRYDAAFATYTRVRPGITGLWQVSGRNNLSYPERVQRDMYYISNWSVWFDIWIIARTIPVVLHRDGAY” it was “failed”; in that of “MSNALATLASPADDIAFYEERLRAAMLTGDLKGLETLLADDLAFVDHTGCVKTKQTHLEPYRAGLLKLSRLDLSDAVVRAAGEDGRVVVVRAVTAGVYDGEAFTETLRFTRIWRRTQGPAGWKLVAGHCSVIL”, “not failed”.
Turning to “MSNDSPQLPDFLLAGRYRLHRLIGAGGMGRVWEGVDELLDRPVAIKELTINEHLPPQEIEILRARMLREARSAAQLSHPSIITVFDVVEKDGFPWIVMELVHGKSLSEIIKQEGAISPERAANLGLQVAAALSVAHQRGIVHRDIKPGNVLVARGDRAVLTDFGIAYLEGSSRLTRTGSLLGSPSYLAPEQARGEPASPAADMWALGTTLYAALHGAPPFQRATPMATLTAVVVDEVPPPVKAGPLRPLLEQLLNKDPQKRPTVHEVVEELQRVVMSFPPQSSSASSTGTHTLQEEASPAPAEVSVAKPAADTSALPLSSPAEPGKRNSTLATVGLVALALCVVVAVITAVVLFVPAGGNSRADGEQPAAETSQSSEETGQAEEPEPTTSAEAAEQGVGEDDEDSEEEAEDDDYSGPPLVRHEDPTGFSLDVPEGWSVDRRGSSVFFRNPEGGYLQVDQTDSPNPDAKKDWEAQERGAAGRFSNYSLIDIRYSDHPSMERYVTASDWEFTFTINGQRMHAVNRGFHTEKKGYALFLVYPADGWEETGAPLLDRMSESFEPAA”, the protein production entry is given as “failed”.
Regarding “MSNENKTIHDFELNLICDFFSNMERQGPGSPEVTLKALSFIDNLTEKSLIADIGCGTGGQTMVLAGHVTGQVTGLDFLSGFIDIFNRNARQSGLQNRVTGIVGSMDDLPFRNEELDLIWSEGAIYNIGFERGLNEWRKYLKKGGYLAVSECSWFTDERPAEINDFWMDAYPEIDTIPNQVAKIHKAGYLPVATFILPENCWTDHYFTPKVAAQKIFLTKYAGNKIAEEFSMLQSIEEELYHKYKEYYGYTFFIAKKIRLLEHHHHHH”, the protein production entry is listed as “not failed”.
“MSNGNKSEKKTLILALVAGMCGDALLSWLTMSEVSFSIFPLIALVLAVQALYQEYLNNPVSEDIPLVGLACFFVGAFGHSAFIKAQYPEAGSNFFAIMVSMILLAWIGKKLGFMEKKTSAE”: the protein production result was “failed”.
With “MSNLPFHQFCGTEGYVASRALQDVVNVAIALERPLLLKGEPGTGKTLLAYHIAKALGMEIILWNVKSTTKARDGLYTYDTVQRLNDARFGDGDVRDIRHYIKLGPLGRAFGSAERVVLLIDEVDKADIEFPNDLLFELDEMRFHVLETDEWVSAAHRPVVIVTSNSEKELPDAFLRRCVFHYIDFPDETQMRAIIDVHFPDLPAELMRSACKVFYGLREVPGLRKRPSTSELLDWIRVLLASGARLPEEETPALQSVPFLGALVKIQEDADILAHHASRSADVRTAGRRFFRLEHHHHHH”, the protein production entry is given as “failed”.
For the sequence “MSNNTKRVGSQTIELKSKPRIIATYSVVGPREGQGPLKEYFDKILQDDCNGCESFEKAESSLMITAIEGVIKKGNVKEEDVDYLFSGDLLNQLTSTNFVAREFKIPFFGVYGACSTMAESLSLSSMIMDGDFAKYAIASTSSHFSSAERQFRFPLEYGCQRKEYSQWTVTGSGAMLLGKSGDYPYVTHVTTGIVKDYGIKDADNMGAAMAPAAVDTIYKHFVDTGRKPEDYDVIATGDLGAVGKKLTEELLKEYGYDISKVYIDCGEKIFDNEKQGTFAGGSGCGCSAVVACGYLYRMLKEKKLKRVLLVSTGALLSSTSALQGESIPGIAHAVAIEYILEHHHHHH”, the protein production entry is listed as “not failed”.
Consider “MSNVRIRQATTDDLIGIFEAHRNSVERLCTSEYSDQQIRMWLDGRSPETYREAVEKGSLWLAEGEQIEGFVELDGNEVSKLFIRGDVARRGLGSRLLEVALARLRASGASSAYLEATLTAEGFYAYHGFQKIGEGTFSRGNSPVSIEIIKMERPL”, for which the protein production result is “failed”.
As for “MSNVSSETVNLNNTSIVHMNMSNVTKLTASNYIMWSRQVHALLHGYGLTQYLDATKAAPAREITVNDVASVNPEYEAWSRQDQLIFSALIGTLSLTVQPTVSRAATSADVWATLAGTYAKPSRGHIKQLQHQIKQWKKDTRTIDEYVQGFINRFDQLALIGKIIDHEDQVDYILGGLPEDYKPIVDQMEGRDTPPNGCLTNSCDEDGCFIQMALNSV”, the protein production result is on record as “failed”.
Turning to “MSNVVVIAVVLIVASLTGHVSAQMDMSPSSGPSGAPDCMANLMNMTGCLSYVTVGEGGGAAKPDKTCCPALAGLVESSPQCLCYLLSGDMAAQLGIKIDKAKALKLPGVCGVITPDPSLCSLFGIPVGAPVAMGDEGASPAYAPGSMSGAESPGGFGSGPSASRGSDAPSSAPYSLFLNLIIFPLAFAFYIFC”, the protein production result is on record as “failed”.
As to “MSPCGPLNLSLAGEATTCAAPWVPNTSAVPPSGASPALPIFSMTLGAVSNLLALALLAQAAGRLRRRRSAATFLLFVASLLATDLAGHVIPGALVLRLYTAGRAPAGGACHFLGGCMVFFGLCPLLLGCGMAVERCVGVTRPLLHAARVSVARARLALAAVAAVALAVALLPLARVGRYELQYPGTWCFIGLGPPGGWRQALLAGLFASLGLVALLAALVCNTLSGLALLRARWRRRSRRPPPASGPDSRRRWGAHGPRSASASSASSIASASTFFGGSRSSGSARRARAHDVEMVGQLVGIMVVSCICWSPMLVLVALAVGGWSSTSLQRPLFLAVRLASWNQILDPWVYILLRQAVLRQLLRLLPPRAGAKGGPAGLGLTPSAWEASSLRSSRHSGLSHF”, the protein production result is on record as “failed”.
Take “MSPDLIPHQKSLSPSYLVFCDVDETLIRCKSGPEFLRHYFEFRHGAEGARRTEELLADLYARLARGLPRDEANREYHRAWRRCPVDEVEDRARHWYRERSRAADFYITATVDALRRHRAEGGAVALVSGSFPPLLPLVAEEVGAQYVLGARLERCGRVLTGELLGLPAIGDGKRVLARELLARHPHIDPADCYAYGDHPSDLPMLHMVGHATLVTPDGTHAPVKPAALT”: the protein production result was “failed”.
Turning to “MSPDSCPLVKNILLLDSEGKRVAVKYYSDDWPTNAAKLSFEKYVFSKTSKTNARTEAEITLLDSNIIVYKFAQDLHFFVTGGENENELILASVLQGFFDAVALLLRSNVEKMEALENLDLIFLCLDEMVDQGVVLETDPNVIAGKVAMQSTEASGSLSEQTLTQALATAREHLARSLLT”, the protein production result is “failed”.
Regarding “MSPFESMEKFPHLLVLDFDGVLCDGLQEYFQTSCQVCRQIWPDLPREKLDRQRDNFYFLRPVIETGWEMPLLLKALATGVEPAAIEAAWPAVAQTLQRQEQIGKSQLAPVLDQVRDNYIHNDLAYWLGLHHFYPGVIGQLNHWLQSPYPQWLYVVTTKEGRFVQQLLKNQKVDFPLGQIIGKEIKQPKFKTLEQLRVKHQCDGDRLWFVEDMLT”, the protein production result is “failed”.
Take “MSPIVTAILVASNLGLIFLLMTVPLGLRTVRVSRVIAMDRGRLWQALWPLGSDAGWSGEILSAEPLDGEGVSRIMLSWEGRDGEPIERRARFDDVVEGSRFSMRVLEDTALDASFWKDYRETAELVSEGSGTRVTLGRTDRYRGVAFLVFRYFAMRRELSKLQRWAMTGQYRKGGWFEHPLSQVGFAVLSALILWPFFGLHLGGLALAAILTSVVALHELGHMAAFRLMGHRKARMIFIPLLGGIAIGGRPYNSRFEVAFVALMGAGFSAFLVPIAIAASAFAGSEGHKAAAALLAALAGCAALFNIANLVPVWKFDGGQVLRQICPGPVALALASFFLLSAFLAVGWEAGFSSGFLLATGAVFSILSLLTMGSGVKPRYELKPIRTVDRFAIAGALLAVFVIHGCGVLWASAQLL”: the protein production entry is on record as “failed”.
With “MSPKTTKKIAILTSGGDAPGMNATLVYLTRYATSSEIEVFFVKNGYYGLYHDELVPAHQLDLSNSLFSAGTVIGSKRFVEFKELKVREQAAQNLKKRQIDYLVVIGGDGSYMGAKLLSELGVNCYCLPGTIDNDINSSEFTIGFLTALESIKVNVQAVYHTTKSHERVAIVEVMGRHCGDLAIFGALATNADFVVTPSNKMDLKQLESAVKKILQHQNHCVVIVSENIYGFDGYPSLTAIKQHFDANNMKCNLVSLGHTQRGFAPTSLELVQISLMAQHTINLIGQNKVNQVIGNKANVPVNYDFDQAFNMPPVDRSALIAVINKNII”, the protein production result is listed as “failed”.
